The source of these data is the DeepSol protein solubility set.

A short description of the data set: soluble on expression in E. coli; label from the status in PepcDB or PDB records.
As to “MDYKTCPFHLVFLYSINPREPRLRKKIYYMMETESRLVVSHALIMYDYNQEGELPRMHGGYLKRFAKRATKRPDPFFQPTQIHDIDNDVSDMSECEKECPFAVPAQAADDGSLYLQLLDMEFWNDRNRQLHFLVNKPSLIESLGCLNNRVPALPPATTGKAAFVFFIDGLEVDARNLTCDGLVPWSENTSTNPHGITKRPKSAKQALALNREGQLRIWKTPSSHRSDLIEFQLHVYTATLPRCPRLRKKVTYVLKNGHQIGNAMIIYWYTEPGEMPAPVNVSTMSSAQEYSLQRLPPHIREDVLRLLARMTPAEVAKVILEKYGIQVNTKMLYYVRRREIMAATDGIRDAEDDHDPYELKNEMIVSAAAGDFVDDWTTDTAGASAEASEGGSRKKNVHLEEMLDERELQVSHTEEIQQPSSSQQQIQLPYRKAKYQEPKNFGQQSSGLPLSQSGMARGTSRNEALFRIAKNSFGSATDNETFDLLFKMLFEKSEHRLLQIVNHTFGVEIMAGEEMDNGEMHLHMAPDGAIVEEIVEEEVIGTVGDDVNLEEEVHENEPKVYTGEKQINDVLEQVVVEEPNHHDDHPPHELLEEDALVNPDDVIVDPNQLIIHDDDDQRQQNIQ”, the “soluble on expression in E. coli” value is reported as “not soluble”.

Turning to “MAHHHHHHMSSVSSPPLTDAEVRELSTAEIRLNLERCSRLLSQASLLRRLRDGGEGIRHRSELFAKELERRHTVEAANGDASTRLASSTLTEALKRENEAAILSESTHNATDAAREIAQKYRDQRIDVEATVRRIYEGILSESEIQRILHSVPPRFFLTYAETCEMERQLARDARKVELQKLAAQAARLSATPQ”, the “soluble on expression in E. coli” value is listed as “soluble”. Regarding “MLLETTPIKANHLRSILDYIEQEQLTAEDRNHCMKLSKKKSIEKKTIHPTVNLNGSACFLQSPSDAIFCRHLSLQYALDSLRNGKGKVNLIKHYSSVESIQQHVPLVRDAEFRALLRHPPAGSRVIASKDFGFALDIFFCRMMANNVSHMSAILYIDNHTLSVRLRIKQSVYGQLNYVVSVYDPNDTNVAVRDTHRTARGFLSLDKFISSGPDAQTWADRYVRNCAIAILPLLPVGVPGAIFAGIASRMPFAPIHPSAMLLIMATGQSQQLITLFKQLPILPEKEIIEIITAQNSVGTPALEHHHHHH”, the “soluble on expression in E. coli” value is “soluble”. On to “MNWYEKLSEYFPIEEMKSKAHMEALLKERSDIYHKDEGKHHILMFAEFDSFIFVDYLYVSKDARGQGLGGKLIAKLKKKNKPILLEVEPVDEDDTDTEKRLRFYQREHFKHAQSIGYRRRSLATNEVNKIEILYWSPKTESEEEILEAMKQTYENIHTYKDEKWYGESYEKTDEVLEIIDEEKQKNIFDQLS”, for which the “soluble on expression in E. coli” value is recorded as “not soluble”. On to “MELTKIRVKTIGYYHRDSEMKATPGRLPKNLNLACLTPMQNKEKFPNMNIEVLDSGKGELMMESLLDYISQTSCLQDEQPGFVTNKQLLVALTRTGSLAIHLFRWNGTTYLLKFNEDESVNQNFGAAFEHHCTKTDDPINENEPVRKAVMIAEIPRGKGVHSVLYSGQIDAVDNEVNRMHYELKVLSGGLTEHFWKTKSCMFYWQAVFGKADVLIIGSRTGKCPNDPKTTWPKEWPPFSVYQVETLEQNQIPESAAEECLKKVLMDPAPEWKPLEGEESVCYFLDLVEEYVKNNGDCYVFTRSDENPDWIVKEDEESVAEFRDVVRHYLAS”, for which the “soluble on expression in E. coli” value was “not soluble”.

Regarding “MANKETDILIIGGGLTGASLSLALQGLGFSVTLVESRPYSDKVNPDFDARSLALSPASQRILAMLGVWEILKEYTTPIHMIHVSDQHRFGASRLHGEKNSPLGYVVEMQYINRALSILINKEHLLTPAALKSIDFNNSTATVAHGDDMISIRAQLIVAADGTESMTRYLCNLPVKIKDYAQDAIVANVGLIKPHGNRAFERFTPNGPLALLPMMNDKMSLVWASKPEEAKRLVMLNDDDFLRELQTAFGYRLGRFGKVGKRYSYPLKQVLMPQQTKWPVVFVGNAAHTLHPVAGQGFNLGLRDIAALAQCISQKGLNPQMLEHYLQLRAHDQQMITWLTDGLIHLFTSRLPGMGVARNLGLLALDNIPALKNLLARYARGFGGITPDLVCEIALSAGEFQLEHHHHHH”, the “soluble on expression in E. coli” value is on record as “soluble”. Consider “MGSDKIHHHHHHMKNYTPIQTETTQNHSKSAGMNNQTEKVLDFDECITFLNKKGKELFGLKFFIDPADYEVVYKILIYIIKDERNAQRHKISLDKGIMLSGPVGCGKTTLMNLMNHIIPVANRYIVRSCRLVSYDFISQGYDAIHKYSYQSFKNNKKVVTPQAWCFDDLGTESSLKYYGNECNVMAEILLSRYDLFIEKDMVTHITTNLVAEEIESFYGVRVRSRMREMFNLISFDRNSKDKRV”, for which the “soluble on expression in E. coli” value was “not soluble”. With “MAHHHHHHSLSLQVTTKTGKESQKKTQTTAKSTITVDIKGAVKHEGVYTLPIDSRINDVIEKAGGFSEKADRKSVNLAQKLQDEAVIYVAAIGENISVIRDSQEGKTSQADKANTKETSVKGKVNLNTATLADLQTISGIGEKKAQDILDYREANGGFKSVDDLKNISGIGDKTFEKLKDLVSVDEG”, the “soluble on expression in E. coli” value is reported as “not soluble”.

On to “MNVEKLKKMKGKEKIVMVTAYDAPSARIARDAGIDVILVGDSLGNNVLGYENTIPVTMEEMLIHVAAVKRGAPDAFIVADMPFLSYQTSVEKAVENAGKFLKVGANAVKIEGGEEFGELVQKLVESGIPVMGHIGLTPQFVNRFGGYRVQGKTEKNREYLLRSARELEKRGAFAIVLELVVEEVAKEITESVSIPTIGIGSGRFCDGQVLVWHDLLGLNPDFAPRFSKKYANLYEVILKALQEFRREVKKGLFPTEEHSFTDKSKGGVSS”, for which the “soluble on expression in E. coli” value was “soluble”. In the case of “IGAVNYSIGANIATNKNKITNLGGSDNIIQTSSYIVKYILKKGESIGSFYGFKTDGLYTQADIDAGHYYTLSGVVPNAGDIKFVPQRDIEYKQEITDEDRTILGKDVPDFTYGVNLSLQYKGFEFSMFGQGISGTKVAFDVYGVHPFYHGQDSPRKYHLKRWTEENPNPHAAYPRIYSASSVHTTYNRNFSDYHLFDSDYFRFKTLSLGYTVPSATVKNWGLQSLKVYVTGENLFTVRADKKMEDFDPETAGGVIYTLGTKSVAFGVNISF”, the “soluble on expression in E. coli” value is reported as “not soluble”. With “MGSDKIHHHHHHMIRIKTPSEIEKMKKAGKAVAVALREVRKVIVPGKTAWDVETLVLEIFKKLRVKPAFKGYGGYKYATCVSVNEEVVHGLPLKEKVFKEGDIVSVDVGAVYQGLYGDAAVTYIVGETDERGKELVRVTREVLEKAIKMIKPGIRLGDVSHCIQETVESVGFNVIRDYVGHGVGRELHEDPQIPNYGTPGTGVVLRKGMTLAIEPMVSEGDWRVVVKEDGWTAVTVDGSRCAHFEHTILITENGAEILTKEG” the entry was “soluble”. As for “MSLEDTLQAPTPLQIERWLRKQFYSVDRNREDRISAKDLKNMLSQVNYRVPNMRFLRERLTDLEQRSGDITYGQFAQLYRSLMYSAQKTMDLPFLEASTLRAGERPELCRVSLPEFQQFLLDYQGELWAVDRLQVQEFMLSFLRDPLREIEEPYFFLDEFVTFLFSKENSVWNSQLDAVCPDTMNNPLSHYWISSSHNTYLTGDQFSSESSLEAYARCLRMGCRCIELDCWDGPDGMPVIYHGHTLTTKIKFSDVLHTIKEHAFVASEYPVILSIEDHCSIAQQRNMAQYFKKVLGDTLLTKPVEISADGLPSPNQLKRKILIKHKKLAEGSAYDENSPLGDLLRGVLDVPACQIAIRPEGKNNRLFVFSISMASVAHWSLDVAADSQEELQDEGHHHHHH”, the “soluble on expression in E. coli” value is “not soluble”. “MPYADNGVKIYYEVEDGGEPAIVFVHGWTANMNFWREQREYFKGKHRMLFIDNRGHGKSDKPFNRSFYEFDNFVSDLHAAVKDASFDRFVLVGHSFGTMISMRYCVEHPGRVEALVLIGGGARIQSLHRYGYPIGRLFATLAYGISARIIANMAFGRKAGELRDWGLKEALENTPKHAALNTLWTLTTVDLRDIAREIEKPTLIVVGKEDALLPVSKSEELSRLIKNSKMVIVPDAGHCVMLEQPEIVNRVLEEFIHTFSAMLIRA”: the “soluble on expression in E. coli” value is given as “not soluble”. With “MRILFIGDVVGSPGRDMVKEYVPKLKTKYKPHFTIINGENAAHGKGLTEKIYHSLIQSGADAITMGNHTWDKKEIFDFIDDVPNLVRPANFPEGTPGKGITYVKANGKELAVINLQGRTFLPPLDDPFLKADELSPEAAKRTPYIFIDFHAEATSEKLALGWYTDGRASAVVGTHTHVQTADNRILPKGTAYITDVGMTGPYDGILGMDRETIIKRFKTNLPVRFTVAEGKTTLSGVVIDIDDQTKKAVKIERILINDDHMFFE”, the “soluble on expression in E. coli” value is recorded as “soluble”. The same measure for “MGSDKIHHHHHHMKIGILTFHDAHNYGAMLQCYALQQFLFKKGYNVEVIDYRPAFYQKQYHRHSLCPWIGKNPVRTMKSIYYNYYLFNKRCAAFSDFHNRHLYMSIPATRTNIPQSYDAYIVGSDQIWNPQLTNGFHDVYFCDFCFPKGKSRFIAYAPSMEISRLSTQEAEYLTRVLNCFDALSVRESSLIPILQPLVSQPIQQVLDPTLLLDATAWNPLIGKCPKNRPYVVLYQVRENPAVRMKAFEIAQSIGGIVVELTARIDCHYSTKYQTASPADFVTYIRYATYVVTTSFHGTAFSLIFNRPFYTFSLGDNFDSRSASLLESVNLTERLVCPDEQFEISLIDFKQANKRLKHLRKQSCDFLRQSLHERQEQ”: “not soluble”; for “MKQTVLLLFTALFLSGCSVASADDSVPRFTEEGKYIGSADPHTIAVSLNGEETMIQVPKDKRDECESLPDQTHVLVKYTKKDNGTLQLEDIQLRKTS”: “soluble”. As to “MTDKLPFALYSRCVKAGKRFYYIDAKRDSKGNDYLVITESNSAEEGSAMTRHKVFLYREDFAKFTEAFLDVLKSFEKRSGVSGCEQAIGLSELEQSLSDMTTGVEGLAESSDSILEEDEPLKIDFDF”, the “soluble on expression in E. coli” value is given as “not soluble”. Consider “MVEMAATGYPVLILKEGTQRTYGREALRANILAARVLAEMLKSSLGPRGLDKMLVDAFGDITVTNDGATIVKEMEIQHPAAKLLVEVAKAQDAEVGDGTTSVVVLAGALLEKAEKLLDENLHPTIIIEGYTKAMEEALRLVDEAAVPVEVEDDSVLRRIAETTLASKFVGTGPERDKIISMVIDAIRTVAEKRPDGGYEVDLDYVKIEKKKGGSLLDSKLVRGIVLDKEVVHPAMPKRVENAKILVLDAPLEVQKPELTTKIRVTDIEKLESFLEEETRMLRDMVEKIAATGANVVITQKGIDEVAQHFLAKKGILAVRRVKRSDIEKVAKATGAKIVTSLRDLKPEYLGYAELVEERKVGEDKMVFIEGAKNPKSVTILLRGANDMLLDEAERNIKDALHGLRNILREPKIVGGGGAVEVELALKLKEFARTVGGKQQLAIEAYAEALETIPTVLAESAGMDALEALLKLRSLHSQGYKFAGVNVLEGKIEEDMTKINVYEPVLVKKQVIKSASEAAISILKIDDVIAAAPPKKKEKKGKTGEEEEEEGGGSKFEF”, for which the “soluble on expression in E. coli” value was “soluble”.

Consider “MGSDKIHHHHHHANNFGITYSLPKTSLVVDAEVTKVTCKAGPYYQYAEKYLGVKDAVTEDKIYFDLGKISLINRGLPDADNTYIVEFKQGTVAPYAYLTEDGLLCSINAEYTPVESELDAAKKNKGSQQKVTDTSVFSEELLMAGSTAKQAEVAAKQIYRIRESRLNILTGEADNLPPDGEAMKLVIQQLEEQEKALTNLFTGILTKETEHYEVSIIPHDNLDKEVLFRFSKQLGIVDADDLGGTPVYMNLKATERAPILDAKEAEKKDKSLKGIVYNVPGKASIEILMNKKTLYKGEAQITQFGTREGLAPVMFEDKKAPVKVLFYPETGAIKQIIQ”, for which the “soluble on expression in E. coli” value is “not soluble”. For “MTNIEILENMLKLQQKLNDETNGLNWENGYTKEGKLISWRRCIYMECAELIDSFTWKHWKNISSLTNWENVRIEIVDIWHFILSLLLEEYRDKNNKDFKAIATEVNAVSVFQDFCKEEEYPNEGDIYGILNDIELIIHKCSGFGFNLGELLSTYFTLAIKCGLNLEILYKTYIGKNVLNIFRQNNGYKDGSYKKTWNGKEDNEVLAQILEQELDFDTIYKKLEECYKKA”, the “soluble on expression in E. coli” value is “soluble”.
